# According to the supplement of paper PMC10567573:
# B1: WDFY1 (parent)
# chain: LLIPKEDGVITASEDRTIRVWLKR
# Variants of: B1
# Assay: protein stability index of a GFP-peptide fusion (GPS, HEK-293T) (PSI 1-6); higher = more stable
# Conditions: c terminus: a fixed tail appended
# 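Also: lentivirally expressed fusions sorted by FACS into six bins by GFP to DsRed ratio, PSI derived from sequencing read proportions per bin multiplied by bin number.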
row,Variant,protein stability index
1,LLIPKEDGVIQASEDRTIRVWLKR,1.72
2,LLIPKEDGVIVASEDRTIRVWLKR,2.19
3,LLIPKEDGVIEASEDRTIRVWLKR,2.26
4,LLIPKEDGVIIASEDRTIRVWLKR,2.15
5,LLIPKEDGVIHASEDRTIRVWLKR,2.56
6,LLIPKEDGVIFASEDRTIRVWLKR,2.4
7,LLIPKEDGVIKASEDRTIRVWLKR,2.03
8,LLIPKEDGVIRASEDRTIRVWLKR,3.1
9,LLIPKEDGVIGASEDRTIRVWLKR,1.98
10,LLIPKEDGVIWASEDRTIRVWLKR,1.72
11,LLIPKEDGVIPASEDRTIRVWLKR,2.65
12,LLIPKEDGVIAASEDRTIRVWLKR,2.43
13,LLIPKEDGVISASEDRTIRVWLKR,2.42
14,LLIPKEDGVICASEDRTIRVWLKR,2.7
15,LLIPKEDGVINASEDRTIRVWLKR,1.82
16,LLIPKEDGVIMASEDRTIRVWLKR,1.5
17,LLIPKEDYVITASEDRTIRVWLKR,1.74
18,LLIPKEDGVGTASEDRTIRVWLKR,2.76
19,LLIPKEDGVTTASEDRTIRVWLKR,2.47
20,LLIPKEDGVCTASEDRTIRVWLKR,1.94
21,LLIPKEDGVSTASEDRTIRVWLKR,2.07
22,LLIPKEDGVLTASEDRTIRVWLKR,2.21
23,LLIPKEDGVYTASEDRTIRVWLKR,1.91
24,LLIPKEDGVFTASEDRTIRVWLKR,2.42

row,Variant,protein stability index
1,LLIPKEDGVQTASEDRTIRVWLKR,2.62
2,LLIPKEDGVRTASEDRTIRVWLKR,2.07
3,LLIPKEDGVDTASEDRTIRVWLKR,2.83
4,LLIPKEDGVETASEDRTIRVWLKR,2.68
5,LLIPKEDGVKTASEDRTIRVWLKR,2.17
6,LLIPKEDGVPTASEDRTIRVWLKR,4.2
7,LLIPKEDGVNTASEDRTIRVWLKR,2.54
8,LLIPKEDGVHTASEDRTIRVWLKR,1.94
9,LLIPKEDGVATASEDRTIRVWLKR,2.4
10,LLIPKEDGVMTASEDRTIRVWLKR,2.14
11,LLIPKEDGVITGSEDRTIRVWLKR,1.93
12,LLIPKEDGVITQSEDRTIRVWLKR,2.18
13,LLIPKEDGVITNSEDRTIRVWLKR,2.56
14,LLIPKEDGVITFSEDRTIRVWLKR,1.91
15,LLIPKEDGVITYSEDRTIRVWLKR,2.66
16,LLIPKEDGVITDSEDRTIRVWLKR,2.39
17,LLIPKEDGVITSSEDRTIRVWLKR,1.71
18,LLIPKEDGVITHSEDRTIRVWLKR,2.08
19,LLIPKEDGVITPSEDRTIRVWLKR,2.76
20,LLIPKEDGVITCSEDRTIRVWLKR,1.77
21,LLIPKEDGVITKSEDRTIRVWLKR,2.19
22,LLIPKEDGVITLSEDRTIRVWLKR,2.1
23,LLIPKEDGVITISEDRTIRVWLKR,1.92
24,LLIPKEDGWITASEDRTIRVWLKR,2.22

row,Variant,protein stability index
1,LLIPKEDGEITASEDRTIRVWLKR,2.6
2,LLIPKEDGTITASEDRTIRVWLKR,2.14
3,LLIPKEDGKITASEDRTIRVWLKR,1.69
4,LLIPKEDGIITASEDRTIRVWLKR,2.77
5,LLIPKEDGGITASEDRTIRVWLKR,2.4
6,LLIPKEDGMITASEDRTIRVWLKR,2.21
7,LLIPKEDGRITASEDRTIRVWLKR,2.33
8,LLIPKEDGYITASEDRTIRVWLKR,1.02
9,LLIPKEDGQITASEDRTIRVWLKR,2.56
10,LLIPKEDGAITASEDRTIRVWLKR,2.58
11,LLIPKEDGNITASEDRTIRVWLKR,2.44
12,LLIPKEDGHITASEDRTIRVWLKR,2.48
13,LLIPKEDGSITASEDRTIRVWLKR,2.74
14,LLIPKEDGFITASEDRTIRVWLKR,1.81
15,LLIPKEDGCITASEDRTIRVWLKR,1.65
16,LLIPKEDGPITASEDRTIRVWLKR,3.22
17,LLIPKEDGVITASWDRTIRVWLKR,1
18,LLIPKEDGVITASTDRTIRVWLKR,1.73
19,LLIPKEDGVITASIDRTIRVWLKR,2.76
20,LLIPKEDGVITASDDRTIRVWLKR,3.39
21,LLIPKEDGVITASCDRTIRVWLKR,2.41
22,LLIPKEDGVITASADRTIRVWLKR,1.71
23,LLIPKEDGVITASVDRTIRVWLKR,1.9
24,LLIPKEDGVITASRDRTIRVWLKR,2.78

row,Variant,protein stability index
1,LLIPKEDGVITASQDRTIRVWLKR,2.14
2,LLIPKEDGVITASKDRTIRVWLKR,1.93
3,LLIPKEDGVITASFDRTIRVWLKR,2.37
4,LLIPKEDGVITASGDRTIRVWLKR,2.29
5,LLIPKEDGVITASMDRTIRVWLKR,2.62
6,LLIPKEDGVITASPDRTIRVWLKR,2.62
7,LLIPKEDGVITAHEDRTIRVWLKR,1.91
8,LLIPKEDGVITAMEDRTIRVWLKR,1.45
9,LLIPKEDGVITAEEDRTIRVWLKR,1.5
10,LLIPKEDGVITAAEDRTIRVWLKR,1.56
11,LLIPKEDGVITAIEDRTIRVWLKR,2.57
12,LLIPKEDGVITANEDRTIRVWLKR,1.99
13,LLIPKEDGVITAQEDRTIRVWLKR,3.07
14,LLIPKEDGVITADEDRTIRVWLKR,2.53
15,LLIPKEDGVITAYEDRTIRVWLKR,2.08
16,LLIPKEDGVITAKEDRTIRVWLKR,2.06
17,LLIPKEDGVITAGEDRTIRVWLKR,2.42
18,LLIPKEDGVITATEDRTIRVWLKR,2.2
19,LLIPKEDGVITACEDRTIRVWLKR,1.51
20,LLIPKEDGVITALEDRTIRVWLKR,2.15
21,LLIPKEDGVITAVEDRTIRVWLKR,2.32
22,LLIPKEDGVITAPEDRTIRVWLKR,1.66
